Test results published in patent US20250136718A1 (MABWELL THERAPEUTICS, published 2025).
Like-named read-outs stand apart in the source and are kept apart here.

T1: cynomolgus monkey TMPRSS6 expressed on HEK293T cells, CynoTMPRSS6-(His)6
T1 chain: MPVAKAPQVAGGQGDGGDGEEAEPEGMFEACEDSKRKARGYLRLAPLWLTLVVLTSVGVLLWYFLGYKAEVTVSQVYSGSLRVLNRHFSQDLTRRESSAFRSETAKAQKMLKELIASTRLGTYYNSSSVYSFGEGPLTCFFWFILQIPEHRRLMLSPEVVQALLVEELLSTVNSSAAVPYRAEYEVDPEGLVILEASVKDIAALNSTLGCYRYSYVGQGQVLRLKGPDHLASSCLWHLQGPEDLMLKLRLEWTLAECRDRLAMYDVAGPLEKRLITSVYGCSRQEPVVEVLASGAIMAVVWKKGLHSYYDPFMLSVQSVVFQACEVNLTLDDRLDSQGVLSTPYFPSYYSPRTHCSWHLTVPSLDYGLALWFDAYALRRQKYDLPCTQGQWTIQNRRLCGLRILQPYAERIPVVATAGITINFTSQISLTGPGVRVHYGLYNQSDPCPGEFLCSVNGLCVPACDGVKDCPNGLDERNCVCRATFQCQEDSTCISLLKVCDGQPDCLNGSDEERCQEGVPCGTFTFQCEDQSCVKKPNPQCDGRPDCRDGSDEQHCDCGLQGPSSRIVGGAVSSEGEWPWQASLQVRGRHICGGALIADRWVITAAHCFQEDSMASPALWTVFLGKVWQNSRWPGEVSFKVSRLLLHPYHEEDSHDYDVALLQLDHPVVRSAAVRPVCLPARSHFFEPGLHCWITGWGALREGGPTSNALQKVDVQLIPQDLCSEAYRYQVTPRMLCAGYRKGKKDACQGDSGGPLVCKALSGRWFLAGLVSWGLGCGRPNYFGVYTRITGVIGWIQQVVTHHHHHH

T2: cynomolgus monkey TMPRSS6 expressed on HEK293T cells, CynoTMPRSS6-(His)6 (cynomolgus monkey, UniProt Q8IU80 10-811 (human entry))
T2 chain: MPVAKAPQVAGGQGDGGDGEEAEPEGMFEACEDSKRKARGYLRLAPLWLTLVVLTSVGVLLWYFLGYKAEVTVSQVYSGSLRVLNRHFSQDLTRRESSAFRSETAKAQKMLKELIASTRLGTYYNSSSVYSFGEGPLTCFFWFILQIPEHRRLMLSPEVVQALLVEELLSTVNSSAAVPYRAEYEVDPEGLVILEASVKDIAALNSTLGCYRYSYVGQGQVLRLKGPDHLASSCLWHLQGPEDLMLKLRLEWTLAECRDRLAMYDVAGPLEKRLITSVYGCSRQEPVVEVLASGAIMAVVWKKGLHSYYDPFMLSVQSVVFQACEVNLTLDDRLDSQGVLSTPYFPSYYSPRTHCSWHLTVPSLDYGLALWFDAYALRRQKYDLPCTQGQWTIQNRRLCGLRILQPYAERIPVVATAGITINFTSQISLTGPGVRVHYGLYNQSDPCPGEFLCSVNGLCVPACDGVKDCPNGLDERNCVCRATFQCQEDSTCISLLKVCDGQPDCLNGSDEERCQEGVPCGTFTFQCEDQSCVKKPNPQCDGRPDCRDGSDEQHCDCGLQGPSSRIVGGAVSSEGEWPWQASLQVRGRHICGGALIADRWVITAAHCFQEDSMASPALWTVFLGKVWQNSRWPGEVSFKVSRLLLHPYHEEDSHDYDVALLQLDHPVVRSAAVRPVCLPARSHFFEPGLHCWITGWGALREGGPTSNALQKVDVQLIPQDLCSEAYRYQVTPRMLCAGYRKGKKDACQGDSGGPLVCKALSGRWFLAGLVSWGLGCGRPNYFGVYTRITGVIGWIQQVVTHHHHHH


Key:
[1] = molecular target: T1, cynomolgus monkey TMPRSS6 expressed on …; experiment: cell surface ELISA
[2] = molecular target: T2, cynomolgus monkey TMPRSS6 expressed on …; experiment: summary of Example 4 (cell surface ELISA)
Procedure: HEK293T cells stably expressing mouse TMPRSS6 (generated by LakePharma Inc as described above, FIGS. 4J, 4L, 4N, 4P, 4R, 4T) or cynomolgus monkey (generated in house as described above, FIGS. 4K, 4M, 4O, 4Q, 4S, 4U) were fixed with methanol (100%), and washed with dPBS (Dulbecco's phosphate-buffered saline, Corning Cellgro) before incubation with various concentrations of anti-TMPRSS6 antibodies and their humanized variants diluted in BSA medium (DMEM+1% Pen/Strep+10 mM HEPES+1 mg/ml BSA (Sigma-Aldrich)). Purified mouse IgG (FIGS. 4J-4O) or Human IgG1 (FIGS. 4P-4U) was used as a control. After incubation, cells were washed with BSA medium and then incubated with goat anti-mouse (Invitrogen, FIGS. 4J-4O) or anti-human (Millipore, FIGS. 4P-4U) IgG conjugated with HRP as a 2° antibody. Finally, cells were washed with dPBS to remove unbound antibody and color developed with ELISA liquid substrate (Sigma-Aldrich), followed by stopping the reaction with addition of the same volume of […] 1M H₂SO₄. Bound antibody was measured by absorbance at OD₄₅₀ₙₘ.

[3] = molecular target: T2, cynomolgus monkey TMPRSS6 expressed on …; experiment: summary of Example 4 (FACS, cell surface ELISA)
Procedure: Selected anti-TMPRSS6 antibodies were tested to determine whether any are capable of binding to TMPRSS6 from mouse and/or cynomolgus monkey. HEK293T cells stably expressing human TMPRSS6 (HuTMPRSS6-(His)₆) (generated by LakePharma Inc as described above), HEK293T cells stably expressing mouse TMPRSS6 (MoTMPRSS6-(His)₆) (SEQ ID NO: 98) (generated by LakePharma Inc as described above) and HEK293T cells transiently expressing cynomolgus monkey TMPRSS6 (CynoTMPRSS6-(His)₆) (SEQ ID NO: 99) (generated in house) were collected. HEK293T cells stably expressing human TMPRSS6 were used as a positive control and HEK293T cells were used as a negative control (as described above). Cells were blocked with dPBS+3% BSA before incubation with anti-TMPRSS6 antibodies diluted in dPBS+3% BSA. After incubation, cells were washed with dPBS and followed by another incubation with goat anti-mouse IgG conjugated with AlexaFluor-488 as a 2° antibody (Invitrogen). At last, cells were washed with dPBS to remove unbound antibody, re-suspended with dPBS+1 mM EDTA, and then subjected to FACS analysis using a NOVOCYTE® Flow Cytometer (ACEA Biosciences, Inc., San Diego CA). Bound antibody was determined by excitation at 488 nm and measurement of emission (FITC-A) at 530 nm. Results for these assays are shown in histogram plots in FIGS. 4A-4I.
HEK293T cells stably expressing mouse TMPRSS6 (generated by LakePharma Inc as described above, FIGS. 4J, 4L, 4N, 4P, 4R, 4T) or cynomolgus monkey (generated in house as described above, FIGS. 4K, 4M, 4O, 4Q, 4S, 4U) were fixed with methanol (100%), and washed with dPBS (Dulbecco's phosphate-buffered saline, Corning Cellgro) before incubation with various concentrations of anti-TMPRSS6 antibodies and their humanized variants diluted in BSA medium (DMEM+1% Pen/Strep+10 mM HEPES+1 mg/ml BSA (Sigma-Aldrich)). Purified mouse IgG (FIGS. 4J-4O) or Human IgG1 (FIGS. 4P-4U) was used as a control.

[4] = molecular target: T1, cynomolgus monkey TMPRSS6 expressed on …; experiment: cell surface ELISA

Row | EC50 [1] [µg/mL] | binding result [2] | binding result [3] | EC50 [4] [µg/mL] | Binder
1 | 0.03 | binds |  |  | humanized anti-TMPRSS6 antibody variant hzMWTx-003 Var (antibody, human IgG1, kappa, L234A L235A, V domains shown, Human IgG1 / kappa) VH: QVQLVQSGAEVKKPGASVKVSCKASGFNIEDYYMHWVRQAPGQRLEWMGRIDPEDAETTYSPKFQGRVTIIPDTSANTAYMELSSLRSEDTAVYYCARSIYLDPMDYWGQGTLVTVSS VL: DIQMTQSPKSLSASVGDRVTITCRASQDVTTALAWYQQKPGQSPKLLIYWATTRHSGVPSRFSGSGSGTDFTLTISSLQPEDFATYYCQQHYSTPYTFGQGTKLEIKR
2 |  |  | binds | 0.09 | MWTx-003 anti-TMPRSS6 monoclonal antibody (antibody, mouse IgG2b, kappa, V domains shown, Mouse monoclonal antibody from hybridoma (ATCC PTA-126761); The recombinant version r4K12B has the same HC and LC; also called r4K12B; recombinant MWTx-003) VH: EVQLQQSGAELVKPGASVKLSCTASGFNIEDYYIHWVKERTEQGLEWIGRIDPEDGETTYAPQFQGKATIIPDTSSNTAYMQLSSLTSEDAAVYYCARSIYLDPMDYWGQGTSVTVSS VL: DIVMTQSHKFMSTSVGDRVSITCKASQDVTTAVAWYQQKPGQSPKILIYWATTRHTGVPDRFTGSISGTTYILTISSVQAEDLALYYCQQHYSTPYTFGGGTKLEIKR
3 |  |  | binds | 0.1 | MWTx-001 anti-TMPRSS6 monoclonal antibody (antibody, mouse IgG2a, kappa, V domains shown, Mouse monoclonal antibody from hybridoma (ATCC PTA-126759)) VH: QVQLQQPGAELAKPGASVKMSCKASGYTFTSYWITWVKQRPGQDLEWIGNIYPGSGSTYYNEKFKSKATLTVDTSSRTAYMQLSSLTSADSAVYYCAPYDSDYAMDYWGQGTSVTVSS VL: DIKMTQSPSSMYASLGERVTITCKASQDINNYLSWFQQKPGKSPKTLIYRANRLVDGVPSRVSGSGSGQDYSLTISSLEYEDVGIYFCLQYDEFPLTFGAGTKLELKR
4 | 0.06 | binds |  |  | humanized anti-TMPRSS6 antibody variant hzMWTx-002 Var (antibody, human IgG1, kappa, N297A, V domains shown, Human IgG1 / kappa) VH: EVQLVQSGAEVKKPGASVKVSCKASGFNIKDYYIHWVRQATGQGLEWMGRIDPEDAESEYAPKFQGRVTITADTSTDTAYMELSSLRSEDTAVYYCTRGDSMMVTYFDYWGQGTLVTVSS VL: DIQMTQSPSSLSASVGDRVTITCKASQDVSTAVAWYQQKPGKAPKLLIYWAFTRHTGVPSRFSGSGSGTDYALTISSLQPEDFATYYCQQHYRSPWTFGGGTKVEIKR
5 | 0.003 | binds |  |  | humanized anti-TMPRSS6 antibody variant hzMWTx-001 Var (antibody, human IgG1, kappa, N297A, V domains shown, Human IgG1 / kappa) VH: EVQLVQSGAEVKKPGASVKVSCKASGYTFTSYWITWVRQAPGQRLEWIGNIYPGSGSTYYNEKFKSKATITRDTSSRTAYMELSSLRSEDTAVYYCAPYDADYAMDYWGQGTLVTVSS VL: DIQMTQSPSSLSASVGDRVTITCKASQDISNYLSWFQQKPGKAPKLLIYRANRLVEGVPSRFSGSGSGTDFTLTISSLQPEDFATYFCLQYDEFPLTFGGGTKVEIKR
6 |  |  | binds | 0.06 | MWTx-002 anti-TMPRSS6 monoclonal antibody (antibody, mouse IgG2b, kappa, V domains shown, Mouse monoclonal antibody from hybridoma (ATCC PTA-126760)) VH: EVQLQQSGAELVKPGASVKLSCTASGFNIKDYYIHWVKERTEQGLEWFGRIDPEDGESEYAPKFQGKATLTADTSSNTAYLQLSSLTSEDTAVYYCTRGDSMMVTYFDYWGQGTTLTVSS VL: DIVMTQSHKFMSTSVGDRVSITCKASQDVSTAVAWYQQKPGQSPKLLIYWAFTRHTGVPDRFTSTGSGTDYALTISSVQAEDLALYYCQQHYRSPWTFGGGTKLEIKR
